Results as given in patent US5847082, “Terminal complement inhibitor fusion proteins” (Alexion Pharmaceuticals, Inc., dated 1998).
Read-outs that look alike come from different tables or passages of the source.

Legend:
[1] = molecular target: T1, purified human complement component C9 (human, UniProt P02748)
[2] = molecular target: T2, purified human complement component C8 (human, UniProt P07357)
[3] = molecular target: T1, purified human complement component C9; test: cell-based or functional assay
[4] = molecular target: T2, purified human complement component C8; test: cell-based or functional assay

Molecule | percent dye release (Calcein AM) after complement attack, Balb/3T3 cells [1] | percent dye release (Calcein AM) after complement attack, Balb/3T3 cells [2] | percent dye release (Calcein AM) after complement attack, Balb/3T3 cells [3] | percent dye release (Calcein AM) after complement attack, Balb/3T3 cells [4]
CD59-MCP TMTCIP (transmembrane form of CD59) | 3 fold | 3 fold | – | –
native human CD59, GPI-anchored (other, glycosyl-phosphatidylinositol (GPI) anchor at the carboxyl terminus) LQCYNCPNPTADCKTAVNCSSDFDACLITKAGLQVYNKCWKFEHCNFNDVTTRLRENELTYYCCKKDLCNFNEQLENGGTSLSEKTVLLLVTPFLAAAWSLHP | – | – | ~3 fold | ~3 fold
